According to the nanobody polyreactivity screen of Harvey et al. (2022):

Assay: yeast display, Sf9 membrane polyspecificity reagent, FACS + sequencing; frameworks hold sequencing errors
How it was run: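 Sorting gates, low and high (top ~1%), were placed on anti-HA fluorescence to track expression and on streptavidin fluorescence to track reagent binding. A clone's polyreactivity label is taken from the gate it came out of. The reagent was 10% biotinylated, detergent-solubilized Sf9 membrane, applied for 1 hour at 4 °C to galactose-induced yeast display cells.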

Row | Sequence | polyreactivity (PSR sort gate)
1 | LVQLVESGGGIVQAGGSLRLSCAASGLISQRNVMGWYRQAPGKERELVARISTSSSGTYYADSVKGRFTISRDNAKNTVYLQMNSLKPEDTAVYYCAKRWSPYYRLYSWGQGTQVTVSS | high polyreactivity
2 | QVQLVESGGGLVQAGGSLRLSCAASGSIFGVNAMGWYRQAPGKERELVAAISSSTGRTYYADSVKGRFTISRDNAKNTVYLQMNSLKPEDTAVYYCAADFTSYRRGWTYGYWGQGTQVTVSS | high polyreactivity
3 | QVQLVESGGALVQAGGSIRLSCAASGFISRKNALGWYSQAPGKERELVATITKSGDTTYYADSVKGRFTISRDNAKNTVYLQMNSLKPEETAVYYCAAPLYYIGSWDYYVRYIYDYWGQGTQVTVSS | low polyreactivity
4 | QVQLEESGGGLVQAGGSLRLSCAASGFIVYYYAMGWYRQAPGKERELVAAISSGDRTYYADSVKGRFTISRDNAKNTVYLQMNSLKREDTAVYYCNALSRNTQLYDYWGQGTQVTVSS | high polyreactivity
5 | QVQLVESGGGLVQAGGSHRLSCAASGSTLGDYAMGWYRQAPGKERELVAAISNGVSTNYADSVKGRFTISRDNAKNTVYLQKNSLKPVDTAVYYCNAGSGWGSLLEYDYWGQGTKVTVSS | low polyreactivity
6 | QVQLVESGGGLVQAGGSLRLSCAASGSTIDYYAMGWYRQAPGKERELVAAIDWSGDSTYYADSVKGRFTISRDNAKNTVYLQMNSLKPEDTAVYYCAADLDSRGTYGRYEYWGQGTQVTVSS | low polyreactivity
7 | QVQLVESGGGLVQAGGSLRLSCAASGRTFGFYTMGWYRPAPGKERELVAAITSRGGITTYADSVKGRFTISRDNAKNTVYLQLNSLIPEDTAVYYCAASLRAPSLGHYYYWGQGTQVTVSS | high polyreactivity
8 | QVQLQERGGRLVQAGGSLRLSCAASGSIFTQATMGCDRQAPGKERELVAAINFGSSTYYADSVKGRFTISRDNAKSTVYLQMNSLKPEDTAVYYCAVRALWYDFHDYWGQGTQVTVSS | high polyreactivity
9 | QVQLVESGGGLVQAGGSLRLSCAASGLTFYYYAMGWYRQAPGKERELVARISSGTSTYYADSVKGRFTISRDNAKNTVYLQMNSLKPEDTAVYFCNARRKLGSTHGPWGGLVYWGQGTQVTVSS | low polyreactivity
10 | QVQLVESGGGLVQAGGSLRLSCAASGFTFLSYTMGWYRQEPGKERELVASITASGTRTYYADSVKGRFTISRDNAKNTVYLQMNSLKPDDTAVYYCAARRSGSGSHDYGYWGQGTQVTVSS | low polyreactivity
11 | QVQLVESGGGLVQAGGSLRLSCAASGRTFFYYTMGWYRQAPGKERELVAAITYSGTSTYYADSVKGRFTISRDNAKNTVYLQMNSLKPEDTAVYYCAADWYVTHQGYTSGIWYVEYDYWGQGTQVTVSS | low polyreactivity
12 | QVQLVDSGGGLVQAGGSLRLSCAASGRTSIWNAMGWYRQAPGKERELVASISWSGGSTYYADSVKGRFTISRDNAKNTVYLQMNSLKPEDTAVYYCAKTGYFLVFNEHLHKKRYDSWGQGTQVTVSS | low polyreactivity
13 | QVQLVESGGGLVQAGGSLRLSCAASGFTFRYYAMGWDRQAPGKERDWVAAITRRGGSTYYSDSVKGRFTISRDNAKNTVYLLMNSLKPEDTAVYYCAASLWTTSADYDYWGQGTQVTVSS | high polyreactivity
14 | QVQLVESGGGLVQAGGSLRLSCAPSGRTFQLYAMGWSRQAPGKERELVAGITITGGSTYYADSVKGRFTISRDNAKNTVYLLMNSLKPEDTAVYYCNKPRFSERYGMGYWGQGTQVTVSS | low polyreactivity
15 | QVQLVESGGGLVQAGGSLRLSCAASGSILARYAMGWYRQAPGKERELVAAISSRGGSTYYADSVKGRFTISRDNAKNTVYLQMNSLKPEDTAVYYCAAYVYLQVEYDYWGQGTQVTVSS | low polyreactivity
16 | QVQLVESGGGLVQAGGSLRLSCAASGYIFYYYAMGWYRQAPGKERELVAAINRSGTSTYYADSVKGRFTISRDNAKNTVYLQMNSLKPEDTAVYYCAAVAGNKLYYWGQGTQVTVSS | high polyreactivity
17 | QVQLVESGGGLVQAGGSLRLSCAASGSISWYYAMGWYRQAPGKERELVAAISDSGGDTYYADSVKGRFTISRDNAKNTVYLQMNSLKPEDTAVYYCAAQYRGSYRTTYDYWGQGTQVTVSS | low polyreactivity
